In patent publication US20070249808A1 (priority 2000, published 2007):

System: CD3+ Vβ+ T cells of peripheral blood lymphocytes (PBL)
Test: T-cell enrichment assay with HtTA 4 cells transfected with bicistronic constructs
Assay type: cell-based, human
Settings: PBL from a healthy donor; 9 days of specific stimulation; FIG. 18

B1: pCDL-HERV WΔ120 aa: N-terminal 120 amino acid fragment of HERV-W ENV (amino acids 1 to 120, including signal peptide), expressed from a bicistronic cassette (protein)
chain: APPPCRCMTSSSPYQEFLWRMQRPGNIDAPSYRSLSKGTPTFTAHTHMPRNCYHSATLCMHANTHYWTGKMINPSCPGGLGVTVCWTYFTQTGMSDGGGV
  expansion of Vβ17+ T-cells: no expansion
